Experimental data from US20250186541A1, “DLL3 TARGETING PEPTIDES AND CONSTRUCTS THEREOF” (MARIANA ONCOLOGY INC., priority 2023, published 2025).
Numbered stars: 1 amine (or outer) side, 2 acyl side, 3 side chain; on linkers, the order of the positions; unused ones are H or OH. Bridge positions count the residues as written; N and C are the ends. Square brackets hold non-standard residues; d marks the D form. * marks the point of attachment. 5,5‑diMe‑P = 5,5-dimethyl-L-proline, CC1(C)CC[C@@H](C(=O)[*:2])N1[*:1]; DOTA = O=C(O)CN1CCN(CC(=O)O)CCN(CC(=O)*)CCN(CC(=O)O)CC1; cisHyp = O=C(O)[C@@H]1C[C@H](O)CN1; hPhe = N[C@@H](CCc1ccccc1)C(=O)O; NMeA = CN[C@@H](C)C(=O)O; Aze = O=C(O)[C@@H]1CCN1; Ahx = NCCCCCC(=O)O

T1: Biotinylated human DLL3 (human, UniProt Q9NYJ7 27-492, biotinylated (site not stated))
T1 construct: also called Delta-like ligand 3; Delta Like Canonical Notch Ligand 3
T1 sequence (looked up): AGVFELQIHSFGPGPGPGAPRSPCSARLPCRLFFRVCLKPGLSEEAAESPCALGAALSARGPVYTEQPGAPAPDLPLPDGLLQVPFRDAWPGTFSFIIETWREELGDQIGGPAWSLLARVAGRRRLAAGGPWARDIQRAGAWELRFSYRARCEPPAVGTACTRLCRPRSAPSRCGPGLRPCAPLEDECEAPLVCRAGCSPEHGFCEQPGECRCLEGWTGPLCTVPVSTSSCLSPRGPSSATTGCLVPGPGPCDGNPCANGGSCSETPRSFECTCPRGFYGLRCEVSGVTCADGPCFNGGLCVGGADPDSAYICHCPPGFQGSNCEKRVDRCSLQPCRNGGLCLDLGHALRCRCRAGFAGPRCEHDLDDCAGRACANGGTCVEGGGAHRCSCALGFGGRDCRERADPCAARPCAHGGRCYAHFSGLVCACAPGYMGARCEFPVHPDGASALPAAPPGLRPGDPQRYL

B1: Cpd #8 (peptide)
peptide: Ac-[dA]SDCWLQWNCPFD-NH2
modifications: disulfide 4-10
B2: Cpd #9 (peptide)
peptide: Ac-M[dA]DCWLQWNCPFD-NH2
modifications: disulfide 4-10
SMILES: CSCC[C@H](NC(C)=O)C(=O)N[C@H](C)C(=O)N[C@@H](CC(=O)O)C(=O)N[C@H]1CSSC[C@@H](C(=O)N2CCC[C@H]2C(=O)N[C@@H](Cc2ccccc2)C(=O)N[C@@H](CC(=O)O)C(N)=O)NC(=O)[C@H](CC(N)=O)NC(=O)[C@H](Cc2c[nH]c3ccccc23)NC(=O)[C@H](CCC(N)=O)NC(=O)[C@H](CC(C)C)NC(=O)[C@H](Cc2c[nH]c3ccccc23)NC1=O
B3: Cpd #10 (peptide)
peptide: Ac-MS[dA]CWLQWNCPFD-NH2
modifications: disulfide 4-10
SMILES: CSCC[C@H](NC(C)=O)C(=O)N[C@@H](CO)C(=O)N[C@H](C)C(=O)N[C@H]1CSSC[C@@H](C(=O)N2CCC[C@H]2C(=O)N[C@@H](Cc2ccccc2)C(=O)N[C@@H](CC(=O)O)C(N)=O)NC(=O)[C@H](CC(N)=O)NC(=O)[C@H](Cc2c[nH]c3ccccc23)NC(=O)[C@H](CCC(N)=O)NC(=O)[C@H](CC(C)C)NC(=O)[C@H](Cc2c[nH]c3ccccc23)NC1=O
B4: Cpd #12 (peptide)
peptide: Ac-MSDCW[dA]QWNCPFD-NH2
modifications: disulfide 4-10
SMILES: CSCC[C@H](NC(C)=O)C(=O)N[C@@H](CO)C(=O)N[C@@H](CC(=O)O)C(=O)N[C@H]1CSSC[C@@H](C(=O)N2CCC[C@H]2C(=O)N[C@@H](Cc2ccccc2)C(=O)N[C@@H](CC(=O)O)C(N)=O)NC(=O)[C@H](CC(N)=O)NC(=O)[C@H](Cc2c[nH]c3ccccc23)NC(=O)[C@H](CCC(N)=O)NC(=O)[C@@H](C)NC(=O)[C@H](Cc2c[nH]c3ccccc23)NC1=O
B5: Cpd #19 (peptide)
peptide: Ac-ASDCWLQWNCPFD-NH2
modifications: disulfide 4-10
SMILES: CC(=O)N[C@@H](C)C(=O)N[C@@H](CO)C(=O)N[C@@H](CC(=O)O)C(=O)N[C@H]1CSSC[C@@H](C(=O)N2CCC[C@H]2C(=O)N[C@@H](Cc2ccccc2)C(=O)N[C@@H](CC(=O)O)C(N)=O)NC(=O)[C@H](CC(N)=O)NC(=O)[C@H](Cc2c[nH]c3ccccc23)NC(=O)[C@H](CCC(N)=O)NC(=O)[C@H](CC(C)C)NC(=O)[C@H](Cc2c[nH]c3ccccc23)NC1=O
B6: Cpd #21 (peptide)
peptide: Ac-MSACWLQWNCPFD-NH2
modifications: disulfide 4-10
SMILES: CSCC[C@H](NC(C)=O)C(=O)N[C@@H](CO)C(=O)N[C@@H](C)C(=O)N[C@H]1CSSC[C@@H](C(=O)N2CCC[C@H]2C(=O)N[C@@H](Cc2ccccc2)C(=O)N[C@@H](CC(=O)O)C(N)=O)NC(=O)[C@H](CC(N)=O)NC(=O)[C@H](Cc2c[nH]c3ccccc23)NC(=O)[C@H](CCC(N)=O)NC(=O)[C@H](CC(C)C)NC(=O)[C@H](Cc2c[nH]c3ccccc23)NC1=O
B7: Cpd #22 (peptide)
peptide: Ac-MSDCALQWNCPFD-NH2
modifications: disulfide 4-10
SMILES: CSCC[C@H](NC(C)=O)C(=O)N[C@@H](CO)C(=O)N[C@@H](CC(=O)O)C(=O)N[C@H]1CSSC[C@@H](C(=O)N2CCC[C@H]2C(=O)N[C@@H](Cc2ccccc2)C(=O)N[C@@H](CC(=O)O)C(N)=O)NC(=O)[C@H](CC(N)=O)NC(=O)[C@H](Cc2c[nH]c3ccccc23)NC(=O)[C@H](CCC(N)=O)NC(=O)[C@H](CC(C)C)NC(=O)[C@H](C)NC1=O
B8: Cpd #24 (peptide)
peptide: Ac-MSDCWLAWNCPFD-NH2
modifications: disulfide 4-10
SMILES: CSCC[C@H](NC(C)=O)C(=O)N[C@@H](CO)C(=O)N[C@@H](CC(=O)O)C(=O)N[C@H]1CSSC[C@@H](C(=O)N2CCC[C@H]2C(=O)N[C@@H](Cc2ccccc2)C(=O)N[C@@H](CC(=O)O)C(N)=O)NC(=O)[C@H](CC(N)=O)NC(=O)[C@H](Cc2c[nH]c3ccccc23)NC(=O)[C@H](C)NC(=O)[C@H](CC(C)C)NC(=O)[C@H](Cc2c[nH]c3ccccc23)NC1=O
B9: Cpd #27 (peptide)
peptide: Ac-MSDCWLQWNCAFD-NH2
modifications: disulfide 4-10
SMILES: CSCC[C@H](NC(C)=O)C(=O)N[C@@H](CO)C(=O)N[C@@H](CC(=O)O)C(=O)N[C@H]1CSSC[C@@H](C(=O)N[C@@H](C)C(=O)N[C@@H](Cc2ccccc2)C(=O)N[C@@H](CC(=O)O)C(N)=O)NC(=O)[C@H](CC(N)=O)NC(=O)[C@H](Cc2c[nH]c3ccccc23)NC(=O)[C@H](CCC(N)=O)NC(=O)[C@H](CC(C)C)NC(=O)[C@H](Cc2c[nH]c3ccccc23)NC1=O
B10: Cpd #28 (peptide)
peptide: Ac-MSDCWLQWNCPAD-NH2
modifications: disulfide 4-10
SMILES: CSCC[C@H](NC(C)=O)C(=O)N[C@@H](CO)C(=O)N[C@@H](CC(=O)O)C(=O)N[C@H]1CSSC[C@@H](C(=O)N2CCC[C@H]2C(=O)N[C@@H](C)C(=O)N[C@@H](CC(=O)O)C(N)=O)NC(=O)[C@H](CC(N)=O)NC(=O)[C@H](Cc2c[nH]c3ccccc23)NC(=O)[C@H](CCC(N)=O)NC(=O)[C@H](CC(C)C)NC(=O)[C@H](Cc2c[nH]c3ccccc23)NC1=O
B11: Cpd #29 (peptide)
peptide: Ac-MSDCWLQWNCPFA-NH2
modifications: disulfide 4-10
SMILES: CSCC[C@H](NC(C)=O)C(=O)N[C@@H](CO)C(=O)N[C@@H](CC(=O)O)C(=O)N[C@H]1CSSC[C@@H](C(=O)N2CCC[C@H]2C(=O)N[C@@H](Cc2ccccc2)C(=O)N[C@@H](C)C(N)=O)NC(=O)[C@H](CC(N)=O)NC(=O)[C@H](Cc2c[nH]c3ccccc23)NC(=O)[C@H](CCC(N)=O)NC(=O)[C@H](CC(C)C)NC(=O)[C@H](Cc2c[nH]c3ccccc23)NC1=O
B12: Cpd #30 (peptide)
peptide: Ac-MSDCWLQWNCPFD[dK](DOTA)-NH2
modifications: disulfide 4-10
B13: Cpd #83 (peptide)
peptide: Ac-KSDCWLQWNCPFD[dK](DOTA)-NH2
modifications: disulfide 4-10
B14: Cpd #84 (peptide)
peptide: Ac-[dK]SDCWLQWNCPFD[dK](DOTA)-NH2
modifications: disulfide 4-10
B15: Cpd #31 (peptide)
peptide: Ac-SDCWLQWNCPFD[dK](DOTA)-NH2
modifications: disulfide 3-9
B16: Cpd #41 (peptide)
peptide: {DOTA}-[Ahx]SDCWLQWNCP[hPhe]D-NH2
modifications: disulfide 4-10
SMILES: CC(C)C[C@@H]1NC(=O)[C@H](Cc2c[nH]c3ccccc23)NC(=O)[C@@H](NC(=O)[C@H](CC(=O)O)NC(=O)[C@H](CO)NC(=O)CCCCCNC(=O)CN2CCN(CC(=O)O)CCN(CC(=O)O)CCN(CC(=O)O)CC2)CSSC[C@@H](C(=O)N2CCC[C@H]2C(=O)N[C@@H](CCc2ccccc2)C(=O)N[C@@H](CC(=O)O)C(N)=O)NC(=O)[C@H](CC(N)=O)NC(=O)[C@H](Cc2c[nH]c3ccccc23)NC(=O)[C@H](CCC(N)=O)NC1=O
B17: Cpd #45 (peptide)
peptide: Ac-MSDCWLQWNC[cisHyp]FD[dK](DOTA)-NH2
modifications: disulfide 4-10
B18: Cpd #46 (peptide)
peptide: Ac-MSDCWLQWNC[5,5‑diMe‑P]FD[dK](DOTA)-NH2
modifications: disulfide 4-10
SMILES: CSCC[C@H](NC(C)=O)C(=O)N[C@@H](CO)C(=O)N[C@@H](CC(=O)O)C(=O)N[C@H]1CSSC[C@@H](C(=O)N2[C@H](C(=O)N[C@@H](Cc3ccccc3)C(=O)N[C@@H](CC(=O)O)C(=O)N[C@H](CCCCNC(=O)CN3CCN(CC(=O)O)CCN(CC(=O)O)CCN(CC(=O)O)CC3)C(N)=O)CCC2(C)C)NC(=O)[C@H](CC(N)=O)NC(=O)[C@H](Cc2c[nH]c3ccccc23)NC(=O)[C@H](CCC(N)=O)NC(=O)[C@H](CC(C)C)NC(=O)[C@H](Cc2c[nH]c3ccccc23)NC1=O
B19: Cpd #48 (peptide)
peptide: Ac-MSDCWLQWNC[Aze]FD[dK](DOTA)-NH2
modifications: disulfide 4-10
B20: Cpd #49 (peptide)
peptide: Ac-MSDCWLQWNC[NMeA]FD[dK](DOTA)-NH2
modifications: disulfide 4-10
SMILES: CSCC[C@H](NC(C)=O)C(=O)N[C@@H](CO)C(=O)N[C@@H](CC(=O)O)C(=O)N[C@H]1CSSC[C@@H](C(=O)N(C)[C@@H](C)C(=O)N[C@@H](Cc2ccccc2)C(=O)N[C@@H](CC(=O)O)C(=O)N[C@H](CCCCNC(=O)CN2CCN(CC(=O)O)CCN(CC(=O)O)CCN(CC(=O)O)CC2)C(N)=O)NC(=O)[C@H](CC(N)=O)NC(=O)[C@H](Cc2c[nH]c3ccccc23)NC(=O)[C@H](CCC(N)=O)NC(=O)[C@H](CC(C)C)NC(=O)[C@H](Cc2c[nH]c3ccccc23)NC1=O

target: T1, Biotinylated human DLL3; experiment: SPR, biotin-hDLL3 on SA chip

First: B1
Second: B2
The Kd of the first is 4.1-fold lower: 8.5 nM for the first, 35.1 nM for the second.

First: B3
Second: B4
The Kd of the first is 1.8-fold higher: 116 nM for the first, 63 nM for the second. The second binds more tightly here.

Compared with B5, B6 is 3.8-fold higher in Kd: 21 nM for the first, 80 nM for the second.

First: B8
Second: B12
The Kd of the first is 1.8-fold lower: 4.9 nM for the first, 8.6 nM for the second.

B13 and B14 are within 1.5-fold of each other in Kd: 32 nM for the first, 29 nM for the second.

Compared with B15, B16 is 3.3-fold higher in Kd: 25.5 nM for the first, 83 nM for the second.

Going from B17 to B18, the Kd falls from 40.6 nM to 12 nM (3.4-fold). The second binds more tightly here.

Compared with B19, B20 is 3.3-fold lower in Kd: 64 nM for the first, 19.6 nM for the second. The second binds more tightly here.

B7: no binding.
B9: no binding.
B10: no binding.
B11: no binding.
